Results published in PMC10540216, “Activity Guided Azide-methyllysine Photo-trapping for Substrate Profiling of Lysine Demethylases” (Journal of the American Chemical Society, 2023).

B1: LMNB1_HUMAN (protein, UniProt P20700 2-583, looked up)
Lamin-B1: ATATPVPPRMGSRAGGPTTPLSPTRLSRLQEKEELRELNDRLAVYIDKVRSLETENSALQLQVTEREEVRGRELTGLKALYETELADARRALDDTARERAKLQIELGKCKAEHDQLLLNYAKKESDLNGAQIKLREYEAALNSKDAALATALGDKKSLEGDLEDLKDQIAQLEASLAAAKKQLADETLLKVDLENRCQSLTEDLEFRKSMYEEEINETRRKHETRLVEVDSGRQIEYEYKLAQALHEMREQHDAQVRLYKEELEQTYHAKLENARLSSEMNTSTVNSAREELMESRMRIESLSSQLSNLQKESRACLERIQELEDLLAKEKDNSRRMLTDKEREMAEIRDQMQQQLNDYEQLLDVKLALDMEISAYRKLLEGEEERLKLSPSPSSRVTVSRASSSRSVRTTRGKRKRVDVEESEASSSVSISHSASATGNVCIEEIDVDGKFIRLKNTSEQDQPMGGWEMIRKIGDTSVSYKYTSRYVLKAGQTVTIWAANAGVTASPPTDLIWKNQNSWGTGEDVKVILKNSQGEEVAQRSTVFKTTIPEEEEEEEEAAGVVVEEELFHQQGTPRASNRSC
B2: TBB5_HUMAN (protein, UniProt P07437 1-444, looked up)
Tubulin beta chain: MREIVHIQAGQCGNQIGAKFWEVISDEHGIDPTGTYHGDSDLQLDRISVYYNEATGGKYVPRAILVDLEPGTMDSVRSGPFGQIFRPDNFVFGQSGAGNNWAKGHYTEGAELVDSVLDVVRKEAESCDCLQGFQLTHSLGGGTGSGMGTLLISKIREEYPDRIMNTFSVVPSPKVSDTVVEPYNATLSVHQLVENTDETYCIDNEALYDICFRTLKLTTPTYGDLNHLVSATMSGVTTCLRFPGQLNADLRKLAVNMVPFPRLHFFMPGFAPLTSRGSQQYRALTVPELTQQVFDAKNMMAACDPRHGRYLTVAAVFRGRMSMKEVDEQMLNVQNKNSSYFVEWIPNNVKTAVCDIPPRGLKMAVTFIGNSTAIQELFKRISEQFTAMFRRKAFLHWYTGEGMDEMEFTEAESNMNDLVSEYQQYQDATAEEEEDFGEEAEEEA
B3: LMNA_HUMAN (protein, UniProt P02545 1-661, looked up)
Prelamin-A/C: METPSQRRATRSGAQASSTPLSPTRITRLQEKEDLQELNDRLAVYIDRVRSLETENAGLRLRITESEEVVSREVSGIKAAYEAELGDARKTLDSVAKERARLQLELSKVREEFKELKARNTKKEGDLIAAQARLKDLEALLNSKEAALSTALSEKRTLEGELHDLRGQVAKLEAALGEAKKQLQDEMLRRVDAENRLQTMKEELDFQKNIYSEELRETKRRHETRLVEIDNGKQREFESRLADALQELRAQHEDQVEQYKKELEKTYSAKLDNARQSAERNSNLVGAAHEELQQSRIRIDSLSAQLSQLQKQLAAKEAKLRDLEDSLARERDTSRRLLAEKEREMAEMRARMQQQLDEYQELLDIKLALDMEIHAYRKLLEGEEERLRLSPSPTSQRSRGRASSHSSQTQGGGSVTKKRKLESTESRSSFSQHARTSGRVAVEEVDEEGKFVRLRNKSNEDQSMGNWQIKRQNGDDPLLTYRFPPKFTLKAGQVVTIWAAGAGATHSPPTDLVWKAQNTWGCGNSLRTALINSTGEEVAMRKLVRSVTVVEDDEDEDGDDLLHHHHGSHCSSSGDPAEYNLRSRTVLCGTCGQPADKASASGSGAQVGGPISSGSSASSVTVTRSYRSVGGSGGGSFGDNLVTRSYLLGNSSPRTQSPQNC
B4: HNRPL_HUMAN (protein, UniProt P14866 1-589, looked up)
Heterogeneous nuclear …: MSRRLLPRAEKRRRRLEQRQQPDEQRRRSGAMVKMAAAGGGGGGGRYYGGGSEGGRAPKRLKTDNAGDQHGGGGGGGGGAGAAGGGGGGENYDDPHKTPASPVVHIRGLIDGVVEADLVEALQEFGPISYVVVMPKKRQALVEFEDVLGACNAVNYAADNQIYIAGHPAFVNYSTSQKISRPGDSDDSRSVNSVLLFTILNPIYSITTDVLYTICNPCGPVQRIVIFRKNGVQAMVEFDSVQSAQRAKASLNGADIYSGCCTLKIEYAKPTRLNVFKNDQDTWDYTNPNLSGQGDPGSNPNKRQRQPPLLGDHPAEYGGPHGGYHSHYHDEGYGPPPPHYEGRRMGPPVGGHRRGPSRYGPQYGHPPPPPPPPEYGPHADSPVLMVYGLDQSKMNCDRVFNVFCLYGNVEKVKFMKSKPGAAMVEMADGYAVDRAITHLNNNFMFGQKLNVCVSKQPAIMPGQSYGLEDGSCSYKDFSESRNNRFSTPEQAAKNRIQHPSNVLHFFNAPLEVTEENFFEICDELGVKRPSSVKVFSGKSERSSSGLLEWESKSDALETLGFLNHYQMKNPNGPYPYTLKLCFSTAQHAS

Test system: KDM4A-I71AzF
Assay: CASI: photo-crosslinking with HEK293T cell extracts, StrepTactin enrichment and LC-MS/MS proteomics;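 also: lysates from HEK293T cells pretreated with a KDM4 inhibitor to raise proteome methylation, affinity-purified after ±UV, gel-resolved, trypsin-digested, with exclusive unique peptides per protein averaged per condition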
Type: binding, human
Details: sheet "Final results but with 0.01"

Row | Molecule | Fold change (+UV/-UV)
1 | B1 | 0.7273
2 | B2 | 0.75
3 | B3 | 1.25
4 | B4 | 1.125
